# According to publication PMC5310709:
# Read-outs that look alike come from different tables or passages of the source.
# Assays:
# Experiment in all cases: cross-linking
# [1] = target: Z protein with N-epsilon-fluoroacetyllysine at residue 24, fused to maltose binding protein
# [2] = target: Z protein with N-epsilon-fluoroacetyllysine at residue 24, fused to maltose binding protein; remark: listed apart in the source
# [3] = target: Z protein with N-epsilon-fluoroacetyllysine at residue 6, fused to maltose binding protein
# [4] = target: Z protein with N-epsilon-fluoroacetyllysine at residue 6, fused to maltose binding protein; remark: listed apart in the source
# [5] = target: Z protein with Cys at residue 6, fused to maltose binding protein
# [6] = target: Z protein with Cys at residue 6, fused to maltose binding protein; remark: listed apart in the source
substance,measurement,setting,value
Zspa Affibody (Afb) with Cys at position 7 (designed binder),crosslinking yield,[1],34%
same,crosslinking yield,[2],12%
Zspa Affibody (Afb) with Cys at position 36 (designed binder),crosslinking yield,[3],64%
same,crosslinking yield,[4],24%
Zspa Affibody (Afb) with N-epsilon-fluoroacetyllysine at position 36 (designed binder),crosslinking efficiency,[5],88%
same,crosslinking yield,[6],33%
